{
  "source": "paper PMC7589169",
  "about": "“High-Resolution Crystal Structure of Chloroplastic Ribose-5-Phosphate Isomerase from Chlamydomonas reinhardtii—An Enzyme Involved in the Photosynthetic Calvin-Benson Cycle” (International Journal of Molecular Sciences, 2020)",
  "proteins": {"B1": {"name": "Chlamydomonas reinhardtii chloroplastic ribose-5-phosphate isomerase 1 (CrRPI1) (enzyme, UniProt A8IRQ1 23-269, looked up)", "chain": "MAAPVSTQLSQDELKKQAAWKAVEYVKSGMVVGLGTGSTAAFAVDRIGQLLKEGKLQNIVGVPTSIRTYEQALSLGIPLATLDEQPKLDVAIDGADEVDPNLDVVKGRGGALLREKMVEMASAKFVCIVDDSKLVEGLGGSKLAMPVEIVQFCHKYTLQRLANLPEVKGCEAKLRMNGDKPYVTDNSNYIVDLYFQTPIKDSQAASKAILGLDGVVDHGLFLDMVDVCIIAGATGVTVQERPNPKKH", "notes": "residues numbered according to UniProtKB entry A8IRQ1; Theoretical Mw of the recombinant monomer is printed as 27,551 Da; The forward primer introduces an NcoI site at the start codon; source: E. coli BL21(DE3) Rosetta-2 pLysS, purified (NiNTA)"}},
  "key": {"[1]": {"target": "the molecule itself", "assay": "SEC; purified CrRPI1 on two different gel filtration matrices (Superose 6 increase; BioSEC-3 300), buffer C (20 mM Tris-HCl pH 7.9, 100 mmol/L NaCl); oligomer state from apparent molecular weight"}, "[2]": {"target": "the molecule itself", "assay": "SEC-SAXS; 50 µL of CrRPI1 at 10 mg/mL on BioSEC-3 300 column in buffer C in series with the SAXS capillary (SWING, SOLEIL); molecular weight from scattering, curve fitted to the crystallographic dimer"}},
  "data": [
    {"protein": "B1", "values": [
      {"measurement": "stoichiometry N", "setting": "[1]", "value": 2},
      {"measurement": "stoichiometry N", "setting": "[2]", "value": "1.78 to 2"}
    ]}
  ]
}
